# Source: patent US20200024330A1
# Assays:
# Experiment in all cases: cell-based or functional assay
# [1] = biological target: HIV-1 Env of isolate 92UG114 (subtype D), on pseudovirus (HIV-1)
# [2] = biological target: HIV-1 Env of isolate 92UG005 (subtype D), on pseudovirus (HIV-1)
# [3] = biological target: HIV-1 Env of isolate 93UG077 (pseudovirus) (HIV-1)
# [4] = biological target: HIV-1 Env of isolate MGRM-D-005 (subtype D), on pseudovirus (HIV-1)
# [5] = biological target: HIV-1 Env of isolate MGRM-AE-003 (pseudovirus) (HIV-1)
# [6] = biological target: HIV-1 Env of isolate MG RM-A-012 (pseudovirus) (HIV-1)
# [7] = biological target: HIV-1 Env of isolate 94UG103 (pseudovirus) (HIV-1)
# [8] = biological target: HIV-1 Env of isolate MGRM-AE-006 (pseudovirus) (HIV-1)
# [9] = biological target: HIV-1 Env of isolate MGRM-AE-004 (pseudovirus) (HIV-1)
# [10] = biological target: HIV-1 Env of isolate 92UG024 (subtype D), on pseudovirus (HIV-1)
# [11] = biological target: HIV-1 Env of isolate 92UG037 (pseudovirus) (HIV-1)
# [12] = biological target: HIV-1 Env of isolate MG RM-A-010 (pseudovirus) (HIV-1)
# [13] = biological target: HIV-1 Env of isolate 92RW009 (clade A), on pseudovirus (HIV-1)
# [14] = biological target: HIV-1 Env of isolate APV_13 (HIV-1)
# [15] = biological target: HIV-1 Env of isolate CMU02 (pseudovirus) (HIV-1)
# [16] = biological target: HIV-1 Env of isolate 93WR029 (pseudovirus) (HIV-1)
# [17] = biological target: HIV-1 Env of isolate 92UG046 (subtype D), on pseudovirus (HIV-1)
# [18] = biological target: HIV-1 Env of isolate 98CN006 (subtype CRF08 BC), on pseudovirus (HIV-1)
# [19] = biological target: HIV-1 Env of isolate 93TH305 (HIV-1)
# [20] = biological target: HIV-1 Env of isolate MG RM-A-005 (pseudovirus) (HIV-1)
# [21] = biological target: HIV-1 MGRM-A-010 Env (pseudovirus) (HIV-1)
# [22] = biological target: HIV-1 MGRM-C-028 Env (pseudovirus) (HIV-1)
# [23] = biological target: HIV-1 Env of isolate MGRM-F1-023 (clade F), on pseudovirus (HIV-1)
# [24] = biological target: HIV-1 envelope glycoprotein (Env) of isolate JRFL, on pseudovirus (HIV-1)
# [25] = biological target: HIV-1 Env of isolate MGRM-F1-022 (clade F), on pseudovirus (HIV-1)
# [26] = biological target: HIV-1 Env of isolate THRO.18 (HIV-1)
# [27] = biological target: HIV-1 JR-FL Env E168K (pseudovirus) (HIV-1 JR-FL)
# [28] = biological target: HIV-1 Env of isolate CAAN (HIV-1)
# [29] = biological target: HIV-1 CMU02 Env (clade AE pseudovirus) (HIV-1)
# [30] = biological target: HIV-1 92TH021 Env (clade AE pseudovirus) (HIV-1)
# [31] = biological target: HIV-1 MGRM-D-018 Env (clade D pseudovirus) (HIV-1)
# [32] = biological target: HIV-1 MGRM-C-026 Env (clade C pseudovirus) (HIV-1)
# [33] = biological target: HIV-1 Env of isolate APV6 (clade B) (HIV-1)
# [34] = biological target: aMLV envelope (negative control pseudovirus) (aMLV)
# [35] = biological target: HIV-1 Env of isolate MGRM-C-027 (clade C) (HIV-1)
# [36] = biological target: HIV-1 Env of isolate 92BR020 (clade B) (HIV-1)
# [37] = biological target: HIV-1 Env of isolate APV13 (clade B) (HIV-1)
# [38] = biological target: HIV-1 Env of isolate NL43 (clade B) (HIV-1)
# 1443_C16 (PG16) (TCN-116) (antibody), sequence (VH): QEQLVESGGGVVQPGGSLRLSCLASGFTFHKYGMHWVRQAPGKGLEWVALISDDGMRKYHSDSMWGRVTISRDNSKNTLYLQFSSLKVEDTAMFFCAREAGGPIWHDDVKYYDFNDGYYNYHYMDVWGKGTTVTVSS
# 1443_C16 (PG16) (TCN-116) (antibody), sequence (VL): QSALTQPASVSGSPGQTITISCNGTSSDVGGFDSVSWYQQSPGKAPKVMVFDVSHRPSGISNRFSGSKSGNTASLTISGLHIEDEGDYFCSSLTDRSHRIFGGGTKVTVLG
substance,measurement,setting,value
VRC01 (antibody),"IC50, pseudovirus neutralization",[1],0.33 µg/mL
same,"IC50, pseudovirus neutralization",[2],0.576 µg/mL
same,"IC50 (µg/mL), pseudovirus neutralization",[3],0.097 µg/mL
same,"IC50, pseudovirus neutralization",[4],> 50 µg/mL
same,"IC50 (µg/mL), pseudovirus neutralization",[5],0.685 µg/mL
same,"IC50 (µg/mL), pseudovirus neutralization",[6],> 50 µg/mL
same,"IC50 (µg/mL), pseudovirus neutralization",[7],0.285 µg/mL
same,"IC50 (µg/mL), pseudovirus neutralization",[8],4.65 µg/mL
same,"IC50 (µg/mL), pseudovirus neutralization",[9],0.187 µg/mL
same,"IC50, pseudovirus neutralization",[10],0.576 µg/mL
same,"IC50 (µg/mL), pseudovirus neutralization",[11],0.245 µg/mL
same,"IC50 (µg/mL), pseudovirus neutralization",[12],0.325 µg/mL
same,"IC50, single-round pseudovirus neutralization",[13],0.187 µg/mL
same,IC50,[14],0.657 µg/mL
same,"IC50 (µg/mL), pseudovirus neutralization",[15],0.515 µg/mL
same,"IC50 (µg/mL), pseudovirus neutralization",[16],1.57 µg/mL
same,"IC50, pseudovirus neutralization",[17],12.7 µg/mL
same,"IC50, pseudovirus neutralization",[18],0.644 µg/mL
same,IC50,[19],0.243 µg/mL
same,"IC50 (µg/mL), pseudovirus neutralization",[20],0.095 µg/mL
5141_B17 (PGT-126) (antibody),IC50,[21],0.0033 µg/mL
same,IC80,[21],0.0137 µg/mL
same,IC90,[21],0.0316 µg/mL
same,IC95,[21],0.0687 µg/mL
same,IC50,[22],0.283 µg/mL
same,IC80,[22],2.62 µg/mL
same,IC90,[22],> 10 µg/mL
same,IC95,[22],> 10 µg/mL
PGV04 (antibody),"IC50 (µg/mL), single-round pseudovirus neutralization",[23],0.171 µg/mL
same,"IC50, pseudovirus neutralization",[24],0.032 µg/mL
same,"IC50 (µg/mL), single-round pseudovirus neutralization",[25],0.072 µg/mL
1443_C16 (PG16) (TCN-116) (antibody),"IC50, pseudovirus neutralization (TZM-bl)",[26],2.19 µg/mL
same,"IC50 (ug/ml), neutralization",[27],0.006 µg/mL
same,"IC50, pseudovirus neutralization (TZM-bl)",[28],6.37 µg/mL
4877_D15 (PGT-122) (antibody),"Neutralization by PGT-122, IC50",[29],> 10 µg/mL
same,"Neutralization by PGT-122, IC80",[29],> 10 µg/mL
same,"Neutralization by PGT-122, IC90",[29],> 10 µg/mL
same,"Neutralization by PGT-122, IC95",[29],> 10 µg/mL
same,"Neutralization by PGT-122, IC50",[30],> 10 µg/mL
same,"Neutralization by PGT-122, IC80",[30],> 10 µg/mL
same,"Neutralization by PGT-122, IC90",[30],> 10 µg/mL
same,"Neutralization by PGT-122, IC95",[30],> 10 µg/mL
same,"Neutralization by PGT-122, IC50",[31],0.0115 µg/mL
same,"Neutralization by PGT-122, IC80",[31],0.035 µg/mL
same,"Neutralization by PGT-122, IC90",[31],0.0674 µg/mL
same,"Neutralization by PGT-122, IC95",[31],0.125 µg/mL
same,"Neutralization by PGT-122, IC50",[32],0.0089 µg/mL
same,"Neutralization by PGT-122, IC80",[32],0.037 µg/mL
same,"Neutralization by PGT-122, IC90",[32],0.0849 µg/mL
same,"Neutralization by PGT-122, IC95",[32],0.181 µg/mL
5147_N06 (PGT-130) (antibody),neutralization IC50,[33],> 10 µg/mL
same,neutralization IC80,[33],> 10 µg/mL
same,neutralization IC90,[33],> 10 µg/mL
same,neutralization IC95,[33],> 10 µg/mL
same,neutralization IC50,[34],> 10 µg/mL
same,neutralization IC80,[34],> 10 µg/mL
same,neutralization IC90,[34],> 10 µg/mL
same,neutralization IC95,[34],> 10 µg/mL
same,neutralization IC50,[35],0.0052 µg/mL
same,neutralization IC80,[35],0.0318 µg/mL
same,neutralization IC90,[35],0.106 µg/mL
same,neutralization IC95,[35],0.464 µg/mL
same,neutralization IC50,[36],1.12 µg/mL
same,neutralization IC80,[36],> 10 µg/mL
same,neutralization IC90,[36],> 10 µg/mL
same,neutralization IC95,[36],> 10 µg/mL
same,neutralization IC50,[37],0.0345 µg/mL
same,neutralization IC80,[37],0.573 µg/mL
same,neutralization IC90,[37],2.88 µg/mL
same,neutralization IC95,[37],> 10 µg/mL
same,neutralization IC50,[38],> 10 µg/mL
same,neutralization IC80,[38],> 10 µg/mL
same,neutralization IC90,[38],> 10 µg/mL
same,neutralization IC95,[38],> 10 µg/mL
